Data reported in article PMC11952830 (2025).
No end group written: not given here. TMR = tetramethylrhodamine

Biological target: actin (rabbit muscle) (rabbit, UniProt P68135 1-377)
Test: FP; actin filaments

{TMR}-MPAKTPIYLKAANNKKGKKFK (domain or fragment) [Cdc42EP3 (1-21), TMR labeled at the N-terminus]
Kd: 18.9 µM
